Residue numbers refer to the chain shown, from its start.
B1: wild type SULT2A1 polypeptide (reference human SULT2A1) (enzyme)
chain: MSDDFLWFEGIAFPTMGFRSETLRKVRDEFVIRDEDVIILTYPKSGTNWLAEILCLMHSKGDAKWIQSVPIWERSPWVESEIGYTALSESESPRLFSSHLPIQLFPKSFFSSKAKVIYLMRNPRDVLVSGYFFWKNMKFIKKPKSWEEYFEWFCQGTVLYGSWFDHIHGWMPMREEKNFLLLSYEELKQDTGRTIEKICQFLGKTLEPEELNLILKNSSFQSMKENKMSNYSLLSVDYVVDKAQLLRKGVSGDWKNHFTVAQAEDFDKLFQEKMADLPRELFPWE
notes: Recombinant protein expressed in COS-1 cells from pCR3.1 and used as an unpurified high speed supernatant cytosol preparation; The pair written here is its self-association into the homodimer; also called WT; WT enzyme
B2: SULT2A1 Ala261Thr allozyme (enzyme)
chain: B1 chain with A261T
notes: Recombinant variant made by site directed mutagenesis and expressed in COS-1 cells from pCR3.1; It was used as an unpurified cytosol preparation; also called codon Thr261 variant allozyme

Target: the molecule itself
Assay: gel filtration chromatography through Sephadex G-100 (self-association / homodimerization)
Protocol: Gel Filtration Chromatography: Gel filtration chromatography of recombinant human SULT2A1 was performed at 4° C. with a 2×25 cm column of Sephadex G-100 superfine. The mobile phase was 5 mM K phosphate buffer, pH 7.5, and 3 ml fractions were collected at a flow rate of approximately 1.8 mL per h. The fractions were assayed for SULT2A1 activity. Standards for column calibration were eluted separately and included Dextran Blue 2000, bovine serum albumin (67 kDa), ovalbumin (45 kDa), chymotrypsinogen A ([…]) and ribonuclease A (13.7 kDa).
The Ala261 Thr polymorphism is located within the dimerization motif at the C-terminus of the conserved 'Region IV' SULT signature sequence, and may alter the formation of the SULT2A1 homodimer. To test that hypothesis, recombinant WT and codon Thr261 variant allozyme preparations were subjected to gel filtration chromatography through Sephadex G-100.

Protein	binding result
B1	binds
B2	no binding
